test: soluble on expression in E. coli; label from the status in PepcDB or PDB records

Sequence | soluble on expression in E. coli
MGSDKIHHHHHHMKVLLTRPQGRNQAMEEQLSLRDVAYLVTPLLSVVETTEQLNPTHLNNTDNLLFISSNAVDFAAQKLQQQFPTHCRYFAVGQATADSLAQYNINAFTSPEHSQDSEGLLSLAQLQDVDKQSFIIVRGLGGRETLAEQLQLRGANVNYWQVYQRAIPNLDGKAITQQWKSFGIDTIVVTSGEILSNLVELVPKELFAWLRACHIIVPSNRVELQAKAMGLSHISNANGANTQAILASLAL | not soluble
NNPVSETITRKHVDKDQIRAFGVVAEDNAQLEKGSLVMMGGKYWFVVNPEDSAKLTGILKAGLDKPFQIVEDTPSYARHQALPVKLESPGSQNFSTEGLCLRYDTDKPADIAKLKQLGFEAVKLDNRTIYTRCVSAKGKYYATPQKLNADYHFEQSVPADIYYTVTEEHTDKSKLFANILYTPP | not soluble
FHQISSRIQKSIDVDEVLRLCAEGLHDVLGYERVNILMADTARTSLSFVAAVGTADFNPAGVVLPLDQRGGVITKCFTDRQVYMIDDVSAYPTDFRLQSPYDAIRALRSKSFVICPIVVKGEAIGVFAVDNRSSRRSLNDTDVDTIKLFADQASSAIVRINLLKAI | soluble
MSLNMFWFLPTHGDGHYLGTEEGSRPVDHGYLQQIAQAADRLGYTGVLIPTGRSCEDAWLVAASMIPVTQRLKFLVALRPSVTSPTVAARQAATLDRLSNGRALFNLVTGSDPQELAGDGVFLDHSERYEASAEFTQVWRRLLQRETVDFNGKHIHVRGAKLLFPAIQQPYPPLYFGGSSDVAQELAAEQVDLYLTWGEPPELVKEKIEQVRAKAAAHGRKIRFGIRLHVIVRETNDEAWQAAERLISHLDDETIAKAQAAFARTDSVGQQRMAALHNGKRDNLEISPNLWAGVGLVRGGAGTALVGDGPTVAARINEYAALGIDSFVLSGYPHLEEAYRVGELLFPLLDVAIPEIPQPQPLNPQGEAVANDFIPRKVAQS | soluble
MSLVDQIKSYVAMRKYSIKRDEHGIVRLQLNNKDLFQFGPLDQGWWPDGLYTAPTDEALRYDIEKTKDFGFNMIRKHIKVEPARWYTYCDQIGLIVWQDMPSGDKSPEWQNRKYFEGTELTRSAESEETYRKEWKEVIDCLYSYPCIGTWVPFNEAWGQFKTQEIAEWTKQYDPSRLVNPASGGNHYTCGDMLDLHHYPGPEMFLYDAQRATVLGEYGGIGLVLKDHLWEPNRNWGYIQFNTSAEATAEYLKYAGILKDMISRGFSAAVYTQTTDVEVEVNGLMTYDRKVIKLDESKLKKMNTEICNSLKEGHHHHHH | not soluble
MAHHHHHHMQFVSDLGLELSVFVCHLYAKYSEEPLKAFHELVLRTRSSCCGSDDSSNYLSLATLSGTQWYQDMTKRYASLRQRLRGERDNDVQEAREVTLSLYPQGCRVSEYADAIVTSAAMLTSNIPSTVLERFASCRVKDLNEKGCVSISADELASDLIERPVLDSFTPSRWWESDKTAPSSSLKDGLVAVKSIGLRVQPVEILIFYTYNGRPRRRFIPLDGLLHENSPIAPLLRRLVRSHGMLVSESQLRSYLQRLQELMRKSVESHASTVKPEGPLQPQFDWKQQIGYSDNAPAAHNTGEEEQHMTSAKTGEPEVNKADVGLLYRDPEAALKNVDLNDADDITLQEFKAKMNEGFMQNALRPGDPGYVYDKRLDVNPTERSEWDDSD | not soluble
MFGKGGLGNLMKQAQQMQEKMQKMQEEIAQLEVTGESGAGLVKVTINGAHNCRRVEIDPSLLEDDKEMLEDLVAAAFNDAARRIEETQKEKMASVSSGMQLPPGFKMPF | soluble
SLSKLMLRHKAKKIDHVAIAVLDLEQAIGYFSMMGFTLSDRMTTTGAHSAMHSAVMEAGPIKFVLLEGANETSQITRFINEYGPGPQHIAIEVENVESLCKELEKQGLDFSTKTIKGPELIQRFTVRCPNSGVMIEFIERNEEEGFSEQNVEDLFRQLEASDAYEG | soluble
MSLTQYWLGLDCGGSWLKAGLYDREGREAGVQRLPLCALSPQPGWAERDMAELWQCCMAVIRALLTHSGVSGEQIVGIGISAQGKGLFLLDKNDKPLGNAILSSDRRAMEIVRRWQEDGIPEKLYPLTRQTLWTGHPVSLLRWLKEHEPERYAQIGCVMMTHDYLRWCLTGVKGCEESNISESNLYNMSLGEYDPCLTDWLGIAEINHALPPVVGSAEICGEITAQTAALTGLKAGTPVVGGLFDVVSTALCAGIEDEFTLNAVMGTWAVTSGITRGLRDGEAHPYVYGRYVNDGEFIVHEASPTSSGNLEWFTAQWGEISFDEINQAVASLPKAGGDLFFLPFLYGSNAGLEMTSGFYGMQAIHTRAHLLQAIYEGVVFSHMTHLNRMRERFTDVHTLRVTGGPAHSDVWMQMLADVSGLRIELPQVEETGCFGAALAARVGTGVYHNFSEAQRDLRHPVRTLLPDMTAHQLYQKKYQRYQHLIAALQGFHARIKEHTLEGHHHHHH | soluble
SSGSKSSNSSAKKSAGKPQQGGDLVVGSIGEPTLFNSLYSTDDASTDIENMLYSFLTKTDEKLNVKLSLAESIKELDGGLAYDVKIKKGVKFHDGKELTADDVVFTYSVPLSKDYKGERGSTYEMLKSVEKKGDYEVLFKLKYKDGNFYNNALDSTAILPKHILGNVPIADLEENEFNRKKPIGSGPFKFKEWKQGQYIKLEANDDYFEGRPYLDTVTYKVIPDANAAEAQLQAGDINFFNVPATDYKTAEKFNNLKIVTDLALSYVYIGWNEKNELFKDKKVRQALTTALDRESIVSQVLDGDGEVAYIPESPLSWNYPKDIDVPKFEYNEKKAKQMLAEAGWKDTNGDGILDKDGKKFSFTLKTNQGNKVREDIAVVVQEQLKKIGIEVKTQIVEWSALVEQMNPPNWDFDAMVMGWSLSTFPDQYDIFHSSQIKKGLNYVWYKNAEADKLMKDAKSISDRKQYSKEYEQIYQKIAEDQPYTFLYYPNNHMAMPENLEGYKYHPKRDLYNIEKWWLAK | soluble
MGSDKIHHHHHHMEKFKGALVVGALRLFALLPWRAVQGVGAGIGWLMWKLPNRSREVVRINLSKCFPELSETELEKLVGQSLMDIGRTLTESACAWIWPPEKSLRYIREVEGMEVLEEALASGDGLVGITSHLGNWEVLNHFYCSYAKPIIFYRPPKLKAVDELLKKQRVQLGNRVAPSTPEGILSVIKEVKKGGCVGIPADPEPARTAGLFVPYLGTTALISKFVPQLLSRGKARGVFFHAVRLPDGSGYKVILEAAPADMYDKDLEVSVAAMSRELAKYVRAYPSQYMWSMKRFKNRPDGEKKWY | not soluble
MGSDKIHHHHHHMIQNTFNIAGGVARNPLVRLAAPITATISAGEHIAIVGPNGGGKSLFVDTLIGKYPLREGTLQYDFSPAATQTVYDNVKYIAFRDTYGAADANYYYQQRWNAHDQDEAPDVREMLGEIKDEQLKQELFELFRIEPMLDKKIILLSSGELRKFQLVKTLLTAPRVLIMDNPFIGLDAPTRELLFSLLDRLTKMSSVQIILVLSMLDDIPSFITHVIPVDKMTVYPKMEREAYLEAFRSRDAAVSFDELQQRIVNLPYDGNNYDSDEVVKLNKVSIRYDDRTILKDLDWTVRRGEKWALSGENGAGKSTLLSLVCADNPQSYACDISLFGRKRGTGESIWEIKKHIGYVSPEMHRAYLKNLPAIEIVASGLHDSIGLYKRPQPEQMAICEWWMDIFGIAELKDNPFLQLSSGEQRLALLARAFVKDPELLILDEPLHGLDTYNRRRVKKIIEAFCHRKDKTMIMVTHYESELPGTITDRIFLKRNR | not soluble
MIEIAKIGDDFDRWQDLLALIMTSFAYMDGVIDPPSSAYRLTLENLAEKARAEIAFVALDSDELLGCLFCRPEPPASLYVGKLCVSPKAQGKGIGKLLLLQAEALARELALPALRLETRIELLSNHTKFAAWGFVKTAENAHAGYDRTTSIEMTKFLG | not soluble
MSLKVREEKLRTIIEWSEKNEDVRVLLLTSSLVNPLALVDEFSDLDIEFVFEDNTNYISDKSWTLKFGNPIAMIEEDESCFNHKHAMKMLLYEDGVKVDFKLYSKSKFIKETQEKELPEDWDIGYKILIDKDGITKQMLKPTYQISIIKKPSEKEFQNLINDFWWDTTYVAKCLVRDEIFYAKFMSETVIRTEYLIPLIEWHIASEHNWNITTNKYGRLFKKYLNQEMWAKTEQTFSGSDIKENWTALFSMTDLVSEIGTELSKKLEYKYPDKLENDIRKYLAGLKPKTEGHHHHHH | soluble
MAHHHHHHMLTTFNIIWKREQAENVNNEKQCKTVSESLGGNAESSESPSSSISEFDQLVNDVEDLLEEQQINETEKLYKISKCPNEKFNKKNKLSITDLSAQLWCEQQLELILTTGKKRETEAMRLGIERHEVLEKADHLIIDVEVNTREESLGYRLLNTIILLEQLYEYKKAREVWVFGVIRGYVLRGIIDELRIEYDHVSRREYLIISDTKTRKEKREPSFAQKKSSAIQVQTYCLLLQHLKSGKADFKKLFEIYECDPTFEFTAIDLIKYKNLENLCKVVNCLFVRLPKIKEEMEIVYEHQGVEFSRNHIPYFYHSTLFTINILLDYWDGKRSSDVVENSDKWKCKFCDFVRNCVRCPLDG | not soluble
MGSDKIHHHHHHENLYFQGAVDLDREGRDPAYVESIVKRSQKIVDKLELTDTVAAREVTTIIANRYFKLNDIYETRDAKVKLAKETLTGDAKQEAVKAAEAEKDAALYRTHFAFPADLSLYLDAKQIDAVKDGMTYGVVMVTYKATVDMIPTLKEEEKAQIMAWLVEAREFAMDAENSNKKHAAFGKYKGRINNYLSKRGYDLVKERKAWYERIKARGGKI | soluble
MRILLIEDDMLIGDGIKTGLSKMGFSVDWFTQGRQGKEALYSAPYDAVILDLTLPGMDGRDILREWREKGQREPVLILTARDALAERVEGLRLGADDYLCKPFALIEVAARLEALMRRTNGQASNELRHGNVMLDPGKRIATLAGEPLTLKPKEFALLELLMRNAGRVLSRKLIEEKLYTWDEEVTSNAVEVHVHHLRRKLGSDFIRTVHGIGYTLGEK | soluble
MSLKIMGFYSQVILPRLLDWSLSDPTLATYRQELLTDVTGEVLEIGFGTGLNLAYYPSHIHKITTVDVNPGMNTIAQKRIDDSGIKVQQLLLSGENLPMADNTFDSVVSTWTLCSIANVEQALQEVYRVLKPGGKFFFLEHGLSNKPNVQVWQNRLTPIQKVLADGCHLNRNIQQLVEQSFDHVELKRFTPENFPDLMAHFYKGCATKKSIEGHHHHHH | not soluble
MSLMRDITPDLCDKYESQVTLLNLPLQNFGQRSAFWGEIVTVRCYHDNSKVRDVLSQNGKGKVLVVDGHGSCHKALMGDQLAILAIKNDWEGVIIYGAVRDVVAMSEMDLGIKALGTSPFKTEKRGAGQVNVTLTMQNQIVEPGDYLYADWNGILMSETALDVAEGGSHHHHHH | soluble
MYTLLLVDDEERMLDLLELYLAPNGYRCVKRRSGAEAIDYLRRHHADLVLLDVMMPELDGWETCRRIRSFSNVPIMMVTARDETADIVQGLKIGADDYVTKPFDEAELLARIEAVLRRTAGGRSAIRAAGLVWDEEEHTVRYEDKPIALTPKEFAILGLLLKHPNQVFSRGQIIASLWGYLADTEERTVDSHMKNIREKLRKAGFPADEYLQTVWGVGYKWEGRKS | soluble
MSLTDLKEVARLAGVSRATAARAFASPEVVRAETRERVFVAARELGFRPNRLGRQLRLQTTNLIGVIVPNLLNPVFAEQFQAMERAARARGYNLLLATTDYSAERESAVVEELLRQRVDGLVLTVTDAEHNRVLESLAIEDTPFVLAYHQTDNEEYSAVSVDNRAGMALATRYLIDAGHRCIAMVAGPVMQSDRARLRYEGYRDAMNEGGLEARPVIEMPAHTNADFAALKPLLRGPTAPSALVCSNDLLAISLIAELRRNGWGVPERLSVIGFDGIALGTQMHPTLCSVVQPIAELAHIVIDQLLARIAGAVPVSHCLPCHIRPGESTQPYKEMLHAQPEGHHHHHH | soluble

Source: the DeepSol protein solubility set
